# Results published in the supplement of paper PMC11908140.
# B1: library; numbered along this chain (parent)
# chain: MRKPRAAVGSGHRKQAASQEGRQKHAKNNSQAKPSACDGLARQPEEVVLQASVSSYHLFRDVAEVTAFRGSLLSWYDQEKRDLPWRRRAEDEMDLDRRAYAVWVSEVMLQQTQVATVINYYTGWMQKWPTLQDLASASLEEVNQLWAGLGYYSRGRRLQEGARKVVEELGGHMPRTAETLQQLLPGVGRYTAGAIASIAFGQATGVVDGNVARVLCRVRAIGADPSSTLVSQQLWGLAQQLVDPARPGDFNQAAMELGATVCTPQRPLCSQCPVESLCRARQRVEQEQLLASGSLSGSPDVEECAPNTGQCHLCLPPSEPWDQTLGVVNFPRKASRKPPREESSATCVLEQPGALGAQILLVQRPNSGLLAGLWEFPSVTWEPSEQLQRKALLQELQRWAGPLPATHLRHLGEVVHTFSHIKLTYQVYGLALEGQTPVTTVPPGARWLTQEEFHTAAVSTAMKKVFRVYQGQQPGTCMGSKRSQVSSPCSRKKPRMGQQVLDNFFRSHISTDAHSLNSAAQ
# Variants of: B1
# Assay: 8OG:A repair function score (normalized; synonymous = 0, nonsense = -1) (normalized log-likelihood score); higher = more repair activity (WT-like)
# Conditions: with 8OG:A DNA repair reporter (GFP) in HEK-293 MUTYH KO cells
# Outline: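 GFP+ (repair) and GFP− bins of viable mCherry+ cells were collected at 72 h from MUTYH knockout HEK-293 cells bearing lentiviral MUTYH cDNA NNN codon-scan libraries in 10 pg/ml doxycycline, co-transfected with an 8OG:A GFP repair reporter and mCherry. Tile amplicons were sequenced, and per-tile Rosace fitness scores were normalized to a repair function score anchored on synonymous and nonsense distributions. Synonymous medians were set to 0 and nonsense to -1, with variants under 300 counts per million at the start removed.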
# 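Also: cells sorted at 72 h after reporter transfection.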
row,Variant,8OG:A repair function score
1,E106Q,-1.51
2,P443Y,-0.0335
3,A520Q,0.00885
4,V114C,-0.178
5,A67I,-0.0242
6,A67G,-0.0739
7,R154C,-1.08
8,R154W,-1.03
9,Q323K,-0.0269
10,Q252F,-1.02
11,V362P,-0.881
12,G293R,-0.00692
13,L396M,-0.451
14,T179H,0.0778
15,L393C,-0.00132
16,L393Q,0.0615
17,L393A,-0.295
18,V458E,-0.975
19,Q182T,-0.0374
20,L355W,-0.0689
21,V274H,-0.563

row,Variant,8OG:A repair function score
1,H312R,-0.0802
2,N366E,0.176
3,T440Q,-0.0653
4,G356W,-0.0772
5,R69N,-1.56
6,S71I,-0.125
7,A371K,-0.182
8,E46Q,0.0688
9,Q426C,-0.0839
10,L237Y,-0.0407
11,G401F,-0.16
12,Q397A,-0.314
13,Q351Y,0.023
14,Q351G,-0.16
15,H420E,-0.781
16,C216F,-0.905
17,R175V,-0.148
18,L229Y,0.0445
19,G209P,-0.887
20,G209N,0.0546
21,M255S,-1.01

row,Variant,8OG:A repair function score
1,G248Y,-0.996
2,R217F,-1.04
3,W447H,-0.881
4,S487I,-0.00284
5,A305G,-0.0138
6,R97T,-0.00706
7,G201K,0.012
8,V102F,-0.714
9,V102M,-0.352
10,E451I,-0.186
11,P402A,-0.0823
12,A334I,-0.198
13,F200P,-1.02
14,L387H,-0.744
15,A6E,0.137
16,I221Q,-1.03
17,Y100G,-1.64
18,E452H,-0.275
19,R398N,-0.285
20,H410Q,-0.291
21,L432R,-0.334

row,Variant,8OG:A repair function score
1,G170K,-0.0295
2,R98A,-0.175
3,A254E,-0.62
4,S318T,0.116
5,S270Q,0.028
6,P225A,-0.238
7,I195S,-0.944
8,T228Y,-0.0271
9,R446S,-0.255
10,R86E,-2.16
11,R86D,-1.26
12,R86G,-1.82
13,E275S,0.00561
14,W75R,-1.13
15,W75I,-2.41
16,E167H,-0.0317
17,F453L,-0.306
18,L180A,-0.223
19,H508S,-0.00585
20,T308V,-0.00366
